# Reference: article PMC8741645 (Structure (London, England : 1993), 2021)
# B1: Saccharomyces cerevisiae vacuolar transient receptor potential yeast 1 (TRPY1) channel, full length, wild type (natural protein, UniProt Q12324 1-675, looked up)
# chain: MVSANGDLHLPISNEQCMPENNGSLGFEAPTPRQILRVTLNLKYLIDKVVPIVYDPNDIVCDHSEILSPKVVKLAYEACGGNPKDKANKRKYQSVIIFSLLKVCEWYSILATMEVHNAKLYETRNLASQQLCKLLIEREETRDLQFLFMQLLLRRYVINENDEDQEPLNALELATDMHCTTVIGSSGFQRCLKWIWRGWIVQNGLDPTTFIKDDSLAEVSLISHFNPVRLKAPVYQNYLQMIFSFLFLGLYTLVVNGKDSERVQSFDLLESIFYVFNTGFILDELTKLYYIGYAHLSFWNLFNDTTYLIITFAMGFRAMSVTPLNAKYSSEDWDKISYRVLSCAAPFVWSRLLLYLESQRFIGIMLVILKHMMKESIVFFFLLFLIMIGFTQGFLGLDSADGKRDITGPILGNLTITVLGLGSFDVFEEFAPPYAAILYYGYYFIVSVILLNILIALYSTAYQKVIDNADDEYMALMSQKTLRYIRAPDEDVYVSPLNLIEVFMTPIFRILPPKRAKDLSYTVMTIVYSPFLLLISVKETREARRIKYNRMKRLNDDANEYDTPWDLTDGYLDDDDGLFSDNRNSGMRATQLKNSRSLKLQRTAEQEDVHFKVPKKWYKNVKKCSPSFEQYDNDDTEDDAGEDKDEVKELTKKVENLTAVITDLLEKLDIKDKKE
# Molecular target: the molecule itself
# Assay: cryo-EM structure
protein,measurement,value
B1,stoichiometry N,4
